Patent US20230235040A1 (ALMIRALL S A, published 2023)
Numbering of substitutions follows the chain as printed.

How the values were obtained:
[1] = molecular target: T1, hu-IL-36β (human IL-36β, N-terminally truncated active form R5-E157) (human); assay: cell-based or functional assay
T1 chain: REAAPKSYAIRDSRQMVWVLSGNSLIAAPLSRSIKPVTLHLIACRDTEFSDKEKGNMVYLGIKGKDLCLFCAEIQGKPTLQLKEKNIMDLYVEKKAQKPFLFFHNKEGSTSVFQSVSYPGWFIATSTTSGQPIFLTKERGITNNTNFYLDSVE

[2] = molecular target: T2, cy-IL-36β (cynomolgus monkey IL-36β, W5-E157) (cynomolgus monkey); assay: cell-based or functional assay
T2 chain: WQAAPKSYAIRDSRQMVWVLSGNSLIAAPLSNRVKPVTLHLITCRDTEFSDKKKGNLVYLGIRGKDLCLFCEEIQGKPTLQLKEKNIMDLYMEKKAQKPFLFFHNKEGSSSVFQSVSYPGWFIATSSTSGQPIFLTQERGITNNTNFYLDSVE

[3] = molecular target: T1, hu-IL-36β (human IL-36β, N-terminally …); assay: cell-based or functional assay
[4] = molecular target: T1, hu-IL-36β (human IL-36β, N-terminally …); assay: SPR (Biacore 8K), IgG captured on protein A chip, hu-IL-36β injected, 37°C
Protocol: (§1) FC1 was kept as a reference. Next, 3-fold serial dilutions of hu-IL-36β in HBS-P buffer from low (0.046 nM of hu-IL-36β) to high (100 nM of hu-IL-36β) were injected (flow rate: 30 μL/min) at either 37° C. The sensorgram was recorded and subject to reference and buffer subtraction before data analysis with the BIACORE® 8K Evaluation Software (GE Healthcare, Chicago, Ill., USA; version 1.1.1.7442). Association rates (kₒₙ) and dissociation rates (koff) were calculated using a simple one-to-one Langmuir binding model. The equilibrium dissociation constant (KD) was calculated as the ratio of koff/kₒₙ.

[5] = molecular target: T3, hu-IL-36α (human IL-36α, N-terminally truncated active form K6-F158) (human, UniProt Q9UHA7 6-158); assay: cell-based or functional assay
T3 sequence: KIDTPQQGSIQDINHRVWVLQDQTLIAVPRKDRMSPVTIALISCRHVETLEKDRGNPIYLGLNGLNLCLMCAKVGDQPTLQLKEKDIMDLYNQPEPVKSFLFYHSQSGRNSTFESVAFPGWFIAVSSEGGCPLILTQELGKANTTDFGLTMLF

[6] = molecular target: T4, hu-IL-36γ (human IL-36γ, N-terminally truncated active form S18-D169) (human, UniProt Q9NZH8 18-169); assay: cell-based or functional assay
T4 sequence: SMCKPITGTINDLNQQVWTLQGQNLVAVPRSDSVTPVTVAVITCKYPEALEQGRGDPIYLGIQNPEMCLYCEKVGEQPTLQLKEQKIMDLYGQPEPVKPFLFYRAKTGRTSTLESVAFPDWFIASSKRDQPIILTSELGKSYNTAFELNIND

[7] = molecular target: T5, cy-IL-36α (cynomolgus monkey IL-36α, K6-F158) (cynomolgus monkey, UniProt Q9UHA7 14-158 (human entry)); assay: cell-based or functional assay
T5 chain: T3 sequence with I2S, D3E, T4M, Q7P, G8V, T24I, M34V, A40S, V74A

[8] = molecular target: T6, cy-IL-36γ (cynomolgus monkey IL-36γ, S18-K168) (cynomolgus monkey, UniProt Q9NZH8 18-167 (human entry)); assay: cell-based or functional assay
T6 chain: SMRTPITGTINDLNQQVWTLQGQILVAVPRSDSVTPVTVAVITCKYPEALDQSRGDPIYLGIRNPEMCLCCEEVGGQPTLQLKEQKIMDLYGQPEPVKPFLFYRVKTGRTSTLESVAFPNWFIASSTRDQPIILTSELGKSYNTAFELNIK

[9] = molecular target: T3, hu-IL-36α (human IL-36α, N-terminally …); assay: cell-based or functional assay; remark: listed apart in the source
[10] = molecular target: T4, hu-IL-36γ (human IL-36γ, N-terminally …); assay: cell-based or functional assay; remark: listed apart in the source
[11] = molecular target: T1, hu-IL-36β (human IL-36β, N-terminally …); assay: SPR (Biacore 8K), IgG captured on protein A chip, 37°C
Protocol: as §1

B1: mAb6.0 recombinant human IgG1 (antibody, V domains shown)
VH: QLQLQESGPGLVKPSETLSLTCTVSGGSITSSNYYWGWIRQPPGKGLEWIGSIDYTGSTYYNPSLKSRVTISVDTSKNQFSLKLSSVTAADTAVYYCARGKYYETYLGFDVWGQGTLVTVSS
VL: QESVLTQPPSVSGAPGQRVTISCTGSSSNIGAGYDVHWYQQLPGTAPKLLIYGNTNRPSGVPDRFSGSKSGTSASLAITGLQAEDEADYYCQSYDISLSGWVFGGGTKLTVLG
notes: Human IgG1; also called mAb6.0 IgG
**Q.** Which results are given for B1?
**A.** IC50, IL-36-stimulated IL-8 secretion by HaCat cells [1]: 0.082 nM; IC50, IL-36-stimulated IL-8 secretion by primary human keratinocytes (HEKn) [1]: 1.75 nM; IC50, hu-IL-36β-stimulated IL-8 secretion by HaCat cells [1]: 0.8 nM; blocking potency relative to IL-36Ra, HaCat IL-8 assay [1]: 1000 fold; IC50, HEK-Blue assay with human IL1RL2 [2]: 1.96 nM; IC50, HEK-Blue IL-36R SEAP reporter assay [3]: 0.64 nM; Kd [4]: 0.42 nM; koff [4]: 0.000115 s⁻¹; kon [4]: 362000 M⁻¹ s⁻¹

B2: mAb2.0 recombinant human IgG1 (antibody, V domains shown)
VH: QLQLQESGPGLVKPSETLSLTCTVSGGSISTSSYYWGWIRQPPGKGLEWIGSIYYTGNTYYNPSLKSRVTISVDTSKNQFSLKLSSVTAADTAVYYCARVRYGVGVPRYFDPWGQGTLVTVSS
VL: QSVLTQPPSVSGAPGQRVTISCTGSSSNIGAHYDVHWYQQLPGTAPKLLIYGNDNRPSGVPDRFSGSKSGTSASLAITGLQAEDEADYYCQSYDYSLSGYVFGGGTKLTVLG
**Q.** With B2 as the binder, how does the “IC50, IL-36-stimulated IL-8 secretion by HaCat cells” value [5] read?
**A.** The value was 0.28 nM.

**Q.** And the “IC50, IL-36-stimulated IL-8 secretion by primary human keratinocytes (HEKn)” value [5]?
**A.** Its value is 0.33 nM.

**Q.** What about the “blocking potency relative to the natural antagonist IL-36Ra, HaCat IL-8 assay” value [5] of the same binder?
**A.** Its value is 100 fold.

**Q.** And the “IC50, IL-36-stimulated IL-8 secretion by HaCat cells” value [6]?
**A.** The value was 1.23 nM.

**Q.** What about the “IC50, IL-36-stimulated IL-8 secretion by primary human keratinocytes (HEKn)” value [6] of the same binder?
**A.** The value was 2.27 nM.

**Q.** And the “blocking potency relative to the natural antagonist IL-36Ra, HaCat IL-8 assay” value [6]?
**A.** Its value is 12 fold.

**Q.** What about the “IC50, HEK-Blue assay with human IL1RL2” value [7] of the same binder?
**A.** Its value is 0.56 nM.

**Q.** What about the “IC50, HEK-Blue assay with human IL1RL2” value [8] of the same binder?
**A.** The value was 1.71 nM.

**Q.** What about the “IC50, HEK-Blue IL-36R SEAP reporter assay” value [9] of the same binder?
**A.** Its value is 5.7 nM.

**Q.** And the “IC50, HEK-Blue IL-36R SEAP reporter assay” value [10]?
**A.** Its value is 7.5 nM.

B3: mAb6.0_2.0 IgG (mAb6.0 HC/mAb2.0 LC chimera) (antibody, V domains shown)
VH: B1 VH
VL: B2 VL
**Q.** With B3 as the binder, how does the “IC50, hu-IL-36β-stimulated IL-8 secretion by HaCat cells” value [1] read?
**A.** The value was 12.7 nM.

**Q.** What about the “fold decrease in potency relative to mAb6.0 IgG, HaCat IL-8 assay” value [1] of the same binder?
**A.** Its value is 16 fold.

**Q.** And the “fold lower affinity than mAb6.0” value [11]?
**A.** The value was 16 fold.

**Q.** And the Kd [4]?
**A.** The Kd was 6.7 nM.

**Q.** What about the koff [4] of the same binder?
**A.** Its koff is 0.00214 s⁻¹.

**Q.** And the kon [4]?
**A.** Its kon is 320000 M⁻¹ s⁻¹.
